In EP1674575A2 (LA JOLLA INSTITUTE FOR ALLERGY AND IMMUNOLOGY, dated 2006):
Substitutions are numbered along the chain they refer to.

T1: LTαTyr108Phe (UniProt P01374 35-205)
T1 construct: also called LTαY108F; Y108F
T1 sequence (looked up): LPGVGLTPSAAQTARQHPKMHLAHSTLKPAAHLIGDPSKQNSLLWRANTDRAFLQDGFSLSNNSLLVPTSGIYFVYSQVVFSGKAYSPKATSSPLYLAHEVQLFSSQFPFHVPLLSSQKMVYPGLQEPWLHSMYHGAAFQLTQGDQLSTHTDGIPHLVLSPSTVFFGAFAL

T2: LTα homotrimer (UniProt P01374 35-205)
T2 construct: also called recombinant LTα; secreted LTα
T2 sequence (looked up): T1 sequence (looked up) with F108Y

T3: LTα1β2 complex (LTβ 33 kDa and LTα 23-25 kDa) from detergent extracts of PMA activated II-23.D7 cells (human, UniProt P01374 35-205; Q06643 1-244)
T3 construct: Endogenous membrane complex, precipitated from detergent extracts; also called LTβ and LTα complex
T3 sequence (looked up) 1: T1 sequence (looked up) with F108Y
T3 sequence (looked up) 2: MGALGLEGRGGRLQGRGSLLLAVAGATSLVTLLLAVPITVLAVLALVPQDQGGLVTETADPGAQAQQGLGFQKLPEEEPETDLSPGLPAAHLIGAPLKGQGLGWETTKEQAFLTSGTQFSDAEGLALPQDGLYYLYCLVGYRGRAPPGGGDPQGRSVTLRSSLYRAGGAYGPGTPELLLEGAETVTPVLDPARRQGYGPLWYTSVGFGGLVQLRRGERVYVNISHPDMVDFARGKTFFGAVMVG

B1: recombinant soluble LTα1β2 (ligand)
chain 1: T1 sequence (looked up) with F108Y
chain 2: QDQGGLVTETADPGAQAQQGLGFQKLPEEEPETDLSPGLPAAHLIGAPLKGQGLGWETTKEQAFLTSGTQFSDAEGLALPQDGLYYLYCLVGYRGRAPPGGGDPQGRSVTLRSSLYRAGGAYGPGTPELLLEGAETVTPVLDPARRQGYGPLWYTSVGFGGLVQLRRGERVYVNISHPDMVDFARGKTFFGAVMVG
B2: Fas:Fc (Fc fusion, UniProt P25445 26-173, looked up)
chain: QVTDINSKGLELRKTVTTVETQNLEGLHHDGQFCHKPCPPGERKARDCTVNGDEPDCVPCQEGKEYTDKAHFSSKCRRCRLCDEGHGLEVEINCTRTQNTKCRCKPNFFCNSTVCEHCDPCTKCEHGIIKECTLTSNTKCKEEGSRSN
notes: not shown: Fc region of human IgG1
B3: HVEM:Fc (extracellular region of HVEM, 1 to K184, fused to the Fc region of human IgG1) (Fc fusion, UniProt Q92956 39-184, looked up)
chain: LPSCKEDEYPVGSECCPKCSPGYRVKEACGELTGTVCEPCPPGTYIAHLNGLSKCLQCQMCDPAMGLRASRNCSRTENAVCGCSPGHFCIVQDGDHCAACRAYATSSPGQRVQKGGTESQDTLCQNCPPGTFSPNGTLEECQHQTK
notes: range 1-184; Bivalent chimeric protein made in baculovirus; also called huHVEM:Fc; hu HVEM:Fc; not shown: Fc region of human IgG1
B4: TNFR60:Fc (Fc fusion, UniProt P19438 30-211, looked up)
chain: LVPHLGDREKRDSVCPQGKYIHPQNNSICCTKCHKGTYLYNDCPGPGQDTDCRECESGSFTASENHLRHCLSCSKCRKEMGQVEISSCTVDRDTVCGCRKNQYRHYWSENLFQCFNCSLCLNGTVHLSCQEKQNTVCTCHAGFFLRENECVSCSNCKKSLECTKLCLPQIENVKGTEDSGTT
notes: also called TNFR:Fc; soluble type I TNFR protein (TNFR:Fc); not shown: Fc region of human IgG1
B5: mouse LTβR:Fc (amino acid residues 1 to Met221 of the extracellular domain of mouse LTβR) (Fc fusion, UniProt P50284 31-221, looked up)
chain: QLVPPYRIENQTCWDQDKEYYEPMHDVCCSRCPPGEFVFAVCSRSQDTVCKTCPHNSYNEHWNHLSTCQLCRPCDIVLGFEEVAPCTSDRKAECRCQPGMSCVYLDNECVHCEEERLVLCQPGTEAEVTDEIMDTDVNCVPCKPGHFQNTSSPRARCQPHTRCEIQGLVEAAPGTSYSDTICKNPPEPGAM
notes: range 1-221; also called mLTβR:Fc; murine LTβR:Fc; not shown: Fc part
B6: LIGHTt66-FLAG mutant Y173F (ligand, human, UniProt O43557 67-240, looked up, not shown: small tags and cut ends)
chain: EMVTRLPDGPAGSWEQLIQERRSHEVNPAAHLTGANSSLTGSGGPLLWETQLGLAFLRGLSYHDGALVVTKAGYYYIYSKVQLGGVGCPLGLASTITHGLYKRTPRFPEELELLVSQQSPCGRATSSSRVWWDSSFLGGVVHLEAGEKVVVRVLDERLVRLRDGTRSYFGAFMV
notes: range 67-240; Homotrimer, from transiently transfected 293T cells
B7: mouse HVEM:Fc (mouse HVEM Met1 to Ser205 fused to the Fc region of human IgG1) (Fc fusion, UniProt Q80WM9 39-205, looked up)
chain: QPSCRQEEFLVGDECCPMCNPGYHVKQVCSEHTGTVCAPCPPQTYTAHANGLSKCLPCGVCDPDMGLLTWQECSSWKDTVCRCIPGYFCENQDGSHCSTCLQHTTCPPGQRVEKRGTHDQDTVCADCLTGTFSLGGTQEECLPWTNCSAFQQEVRRGTNSTDTTCSS
notes: range 1-205; also called mHVEM:Fc; murine HVEM:Fc; not shown: Fc region of human IgG1 (printed IgC1) at the 3' end of the HVEM insert
B8: LIGHTt66-FLAG mutant L120Q (ligand, human, UniProt O43557 67-240, looked up, not shown: small tags and cut ends)
chain: B6 chain with L54Q, F107Y
notes: as for B6
B9: LIGHTt66-FLAG mutant Q117T (ligand, human, UniProt O43557 67-240, looked up, not shown: small tags and cut ends)
chain: B6 chain with Q51T, F107Y
notes: as for B6

Columns and labels:
[1] = molecular target: LTβR (lymphotoxin β receptor) expressed by cells (human, UniProt P36941 31-435); test: cell-based or functional assay
[2] = molecular target: T4, p30 (LIGHT), the 30 kDa cell surface HVEM ligand of activated II-23.D7 cells and human T cells (human, UniProt O43557 1-240); test: competition for HVEM:Fc binding to activated II-23.D7 cells, flow cytometry
T4 construct: whole, on cells; Endogenous protein, tested on the cell surface in flow cytometry and from detergent extracts in precipitations; also called 30 kDa protein

TNF = molecular target: T5, TNF (UniProt P01375 77-233); test: precipitation of 35S-labeled secreted proteins of II-23.D7 cells, SDS-PAGE
T5 construct: also called TNF (17 kDa)

[3] = molecular target: B6; test: SPR (BIAcore)
LTαTyr108Phe = molecular target: T1, LTαTyr108Phe; test: competition for HVEM:Fc binding to II-23.D7 cells, flow cytometry (Figure 3)
[4] = molecular target: T4, p30 (LIGHT), the 30 kDa cell surface …; test: flow cytometry, saturation binding to activated II-23.D7 cells
LTα homotrimer = molecular target: T2, LTα homotrimer; test: precipitation of 35S-labeled secreted proteins, SDS-PAGE
[5] = molecular target: B9; test: SPR (BIAcore), receptor:Fc amine-coupled, LIGHT mutant as analyte 100-500 nM
[6] = molecular target: B6; test: as above
gD-1 (Δ290-299t) = molecular target: T6, gD-1 (Δ290-299t) (herpes simplex virus type 1, UniProt Q69091 26-331); test: binding inhibition, flow cytometry
T6 construct: also called gD-1 (Δ1290 - 299t)

[7] = molecular target: T4, p30 (LIGHT), the 30 kDa cell surface …; test: precipitation from detergent extracts of activated II-23.D7 cells; competition by flow cytometry
[8] = molecular target: T3, LTα1β2 complex (LTβ 33 kDa and LTα …); test: precipitation with murine LTβR:Fc, 2D electrophoresis (Figure 4A)
[9] = molecular target: B3; test: SPR (BIAcore)
[10] = molecular target: B5; test: ELISA, receptor:Fc capture, anti-FLAG detection
human LTβR:Fc = molecular target: T7, human LTβR:Fc (human, UniProt P36941 31-227, limits assumed); test: SPR (BIAcore), receptor:Fc amine-coupled, LIGHT mutant as analyte 100-500 nM
T7 construct: also called huLTβR:Fc; hu LTβR:Fc; not shown: Fc region of human IgG1

[11] = molecular target: B8; test: ELISA, receptor:Fc capture, anti-FLAG detection
[12] = molecular target: B6; test: ELISA, receptor:Fc capture, anti-FLAG detection

T7 sequence (P36941 31-227 limits assumed): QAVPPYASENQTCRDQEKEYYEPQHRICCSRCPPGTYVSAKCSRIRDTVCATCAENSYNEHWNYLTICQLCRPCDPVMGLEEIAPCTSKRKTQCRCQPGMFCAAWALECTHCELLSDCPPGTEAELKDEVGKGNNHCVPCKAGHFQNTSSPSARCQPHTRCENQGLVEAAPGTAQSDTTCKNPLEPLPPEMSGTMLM
T5 sequence (P01375 77-233 limits assumed): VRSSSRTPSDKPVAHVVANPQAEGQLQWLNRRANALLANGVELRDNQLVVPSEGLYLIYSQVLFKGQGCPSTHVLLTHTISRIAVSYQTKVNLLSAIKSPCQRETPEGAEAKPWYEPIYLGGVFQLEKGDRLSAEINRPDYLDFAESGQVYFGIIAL
T6 sequence (Q69091 26-314, tags or fused parts left off): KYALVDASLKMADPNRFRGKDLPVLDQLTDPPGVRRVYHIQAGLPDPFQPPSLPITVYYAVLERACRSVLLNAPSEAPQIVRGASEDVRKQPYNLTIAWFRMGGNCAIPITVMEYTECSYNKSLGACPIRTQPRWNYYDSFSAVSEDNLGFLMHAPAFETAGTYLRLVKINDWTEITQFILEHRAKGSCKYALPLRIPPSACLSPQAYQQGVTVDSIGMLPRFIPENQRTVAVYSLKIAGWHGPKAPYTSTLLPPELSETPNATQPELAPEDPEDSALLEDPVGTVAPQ

For B1, the “fold decrease in relative anti-HCMV activity (against LTα and LIGHT)” value [1] was about 10 fold.

B2: no binding [2].

For B3, the binding result (TNF) was “no binding”, the Kd [3] was 180 nM and the binding result (LTαTyr108Phe) was “no binding”. The EC50 [4] was about 20 nM, the binding result (LTα homotrimer) was “binds” and the Kd [5] was 0.3 nM. It also gave a kon [5] of 20000 M⁻¹ s⁻¹, a Kd [6] of 173 nM and a koff [6] of 0.0033 s⁻¹. For the same binder, the kon [6] was 19000 M⁻¹ s⁻¹.

B4: no binding (gD-1 (Δ290-299t)); no binding [7].

B5: binds [8].

For B6, the “fold lower affinity than LIGHT t66” value [9] was over 40 fold, the “fold induction of ICAM expression by NHDF cells (flow cytometry, 20 nM)” value [1] was 2.5 fold and the binding result [10] was “no binding”. It also gave a Kd (human LTβR:Fc) of 31 nM, a koff (human LTβR:Fc) of 0.0011 s⁻¹ and a kon (human LTβR:Fc) of 37000 M⁻¹ s⁻¹.

B7: binds [11]; no binding [12].

B8: binds [10].

B9 was tested, and the Kd (human LTβR:Fc) was 1.5 nM and the koff (human LTβR:Fc) was 4.5e-05 s⁻¹.
